Data reported in article PMC7033278, “A Nonpeptide Oxytocin Receptor Agonist for a Durable Relief of Inflammatory Pain” (Scientific Reports, 2020).
pEC50: −log10 of the molar value. Where two headings read alike, the source gives them in different places.

How the values were obtained:
[1] = target: T1, ionotropic TRPV1 receptor (Homo sapiens, UniProt Q8NER1); assay: Eurofins functional profiling, TRPV1 agonist/antagonist; format: cell-based; details: 5 μM
T1 construct: Eurofins (contract assay)
T1 sequence (Q8NER1 whole entry): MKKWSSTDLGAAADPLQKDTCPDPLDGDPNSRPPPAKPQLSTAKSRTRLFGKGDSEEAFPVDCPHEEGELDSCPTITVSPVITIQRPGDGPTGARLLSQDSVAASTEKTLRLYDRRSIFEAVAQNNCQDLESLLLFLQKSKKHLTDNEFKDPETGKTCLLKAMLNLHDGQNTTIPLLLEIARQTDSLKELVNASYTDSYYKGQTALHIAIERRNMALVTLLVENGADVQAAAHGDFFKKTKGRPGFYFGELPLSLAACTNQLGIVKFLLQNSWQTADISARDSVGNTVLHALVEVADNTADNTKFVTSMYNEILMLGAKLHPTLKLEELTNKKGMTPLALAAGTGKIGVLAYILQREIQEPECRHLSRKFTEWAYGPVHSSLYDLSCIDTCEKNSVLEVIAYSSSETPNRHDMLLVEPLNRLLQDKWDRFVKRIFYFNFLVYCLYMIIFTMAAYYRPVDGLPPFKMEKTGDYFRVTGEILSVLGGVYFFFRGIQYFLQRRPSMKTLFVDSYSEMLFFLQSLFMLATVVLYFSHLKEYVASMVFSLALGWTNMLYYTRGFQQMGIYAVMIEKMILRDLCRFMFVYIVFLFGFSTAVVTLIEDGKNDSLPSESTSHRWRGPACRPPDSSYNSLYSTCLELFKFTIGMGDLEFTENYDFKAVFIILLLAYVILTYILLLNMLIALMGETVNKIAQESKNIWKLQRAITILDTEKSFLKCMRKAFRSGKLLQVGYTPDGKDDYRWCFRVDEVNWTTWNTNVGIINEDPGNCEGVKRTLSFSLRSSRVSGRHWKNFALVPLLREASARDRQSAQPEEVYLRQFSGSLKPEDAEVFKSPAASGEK
Protocol: In vitro profiling of LIT-001 was performed by Eurofins as described in the Eurofins SafetyScreen-Functional panel, 2018[31]. The hepatotoxicity of LIT-001 was studied with cryo-preserved mouse hepatocytes. After unfreezing (optiTHAW and optiINCUBATE media, Xenotech) and cell viability control, cells (2 × 10^6 cells/ml) were dispatched in 96 well microtiterplates. LIT-001 was added to reach a concentration 1 μM in the presence of 1 × 10^6 cells/mL in a volume of 100 μl/well. The incubation was stopped at 4, 20, 40, 80 and 120 min in adding 100 μl of acetonitrile at 0 °C. A positive control was treated in the same conditions. All samples were analyzed by UHPLC coupled to a mass spectrometer (Shimadzu LC-MS 8030).

[2] = parameters: method as in PMID 19183510; details: humans and rats; listed as OT; cited from earlier work
[3] = parameters: method as in PMID 6831225; details: rat CSF (abstract: humans and rats), cited from earlier work
[4] = stated for comparison, no reference given; cited from earlier work
[5] = target: Transient Receptor Potential Vanilloid type-1 (TRPV1); parameters: method as in PMID 29117570; details: cited from earlier work

| Compound | agonist or antagonist activity at TRPV1 receptor [1] | half-life in the blood circulation [2] | half-life in cerebrospinal fluid (CSF) [3] | half-life in cerebrospinal fluid (CSF) ([3]; listed as OT) | half-life [4] | pEC50 [5] |
| --- | --- | --- | --- | --- | --- | --- |
| Cc1ccccc1N1CCN(S(=O)(=O)C[C@]23CC[C@H](C[C@@H]2NC(=O)[C@@H](N)CCS(C)(=O)=O)C3(C)C)CC1 [L-368,699, reference compound] | neither LIT-001 nor the OT antagonist L-368,699 displayed any significant agonist or antagonist activity | – | – | – | – | – |
| Oxytocin | – | 5 min | around twenty | around 20 minutes | less than 15 min | 6.50 |
